In US5427937 one finds factor Xa activity (chromogenic assay, hydrolysis of Chromozym X) data, which are given here for one substance.

In this assay the target is purified human coagulation factor Xa (human) (UniProt P00742).

Consider “crude soluble hookworm protein extract (Ancylostoma caninum adult worms) (pool or library)”, for which the factor Xa activity (chromogenic assay, hydrolysis of Chromozym X) came out at 50 % reduction.
